The supplement of paper PMC9170038

Test system: K4 kissing-loop RNA reporter
Test: apparent KD of K4 kissing-loop reporter; higher = weaker reporter binding
Conditions: Eterna round: R107
Procedure: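 RNA-MaP round R107: designed RNA switches with theophylline, tryptophan, arginine or FMN aptamers are transcribed on-chip within common flanks. They are titrated with a labelled K4 kissing-loop RNA reporter in RNA-MaP buffer (100 mM Tris pH 7.5, 80 mM KCl, 4 mM MgCl2), without ligand or with the indicated ligand. Median apparent KD per design.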

[1] = input ligand: theophylline 20 uM
[2] = input ligand: tryptophan 2.4 mM
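Also: bound reporter read as fluorescence of individual clusters on recovered sequencing chips by microscopy, with normalized cluster intensities fitted with a binding model.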

UGCACCAGUGAUGUUGGUCGGCACCGAGAUACCAGCUGAUCUCUUAGCCCUUGGCAGCUCUUUAUUCGCGUUAUCAGUUUCUUCG [theeternabot_sameState_KL_Theo_A_16]
apparent KD of K4 kissing-loop reporter (input ligand: FMN 200 uM): 428 nM
apparent KD of K4 kissing-loop reporter (input ligand: arginine 13.2 mM): 368 nM
apparent KD of K4 kissing-loop reporter (input ligand: none): 464 nM
apparent KD of K4 kissing-loop reporter [1]: 416 nM
apparent KD of K4 kissing-loop reporter [2]: 345 nM

UGCAUGCUUAGAGUGAUGUUCUAAGAUGAUACCAGUGCUUUUUUGCACCCUUGGCAGCGUCUGAUUGCAUGCACGUCGAAAGACG
apparent KD of K4 kissing-loop reporter (input ligand: FMN 200 uM): 288 nM
apparent KD of K4 kissing-loop reporter (input ligand: arginine 13.2 mM): 287 nM
apparent KD of K4 kissing-loop reporter (input ligand: none): 279 nM
apparent KD of K4 kissing-loop reporter [1]: 266 nM
apparent KD of K4 kissing-loop reporter [2]: 289 nM

GGACCUCAGUGAUGUUGAGGUAACACUGAUACCAGCGACUUAAUUCGCCCUUGGCAGCAGUCCACCGAGGUAUCUGAUUAGGUCU [#23 K4 Theophylline A Exclusion]
apparent KD of K4 kissing-loop reporter (input ligand: FMN 200 uM): 211 nM
apparent KD of K4 kissing-loop reporter (input ligand: arginine 13.2 mM): 220 nM
apparent KD of K4 kissing-loop reporter (input ligand: none): 216 nM
apparent KD of K4 kissing-loop reporter [1]: 287 nM
apparent KD of K4 kissing-loop reporter [2]: 190 nM

AUCAGUUCAGCUGAUACCAGUCAGGAGUGAUGUUCCUGCUCGCGUCAGCCGCGUCGACAAGACCCUUGGCAGCAGCUCUAAGUGU [theeternabot_exclusion_KL_Theo_B_40]
apparent KD of K4 kissing-loop reporter (input ligand: FMN 200 uM): 114 nM
apparent KD of K4 kissing-loop reporter (input ligand: arginine 13.2 mM): 98.1 nM
apparent KD of K4 kissing-loop reporter (input ligand: none): 110 nM
apparent KD of K4 kissing-loop reporter [1]: 103 nM
apparent KD of K4 kissing-loop reporter [2]: 110 nM

GCCGUACGCAUGGAUACCAGCCGACCUGAUGUUAAGCUGGUGCCGUAGUGAUGUUACGAAGGCCCUUGGCAGCCAUGCGUACGGC
apparent KD of K4 kissing-loop reporter (input ligand: FMN 200 uM): 211 nM
apparent KD of K4 kissing-loop reporter (input ligand: arginine 13.2 mM): 147 nM
apparent KD of K4 kissing-loop reporter (input ligand: none): 209 nM
apparent KD of K4 kissing-loop reporter [1]: 176 nM
apparent KD of K4 kissing-loop reporter [2]: 196 nM

CUAUGAGUGAUGUUCGUAGGUUGGGCUUGGCAGGAUAUGGGAUCUUCCAGAAGGGCCGAUUCCGGCGAGUGAUGUUCGUUGGUCU [Exclusion FMN A GF30]
apparent KD of K4 kissing-loop reporter (input ligand: FMN 200 uM): 41.7 nM
apparent KD of K4 kissing-loop reporter (input ligand: arginine 13.2 mM): 42.1 nM
apparent KD of K4 kissing-loop reporter (input ligand: none): 50.1 nM
apparent KD of K4 kissing-loop reporter [1]: 43.2 nM
apparent KD of K4 kissing-loop reporter [2]: 43.9 nM

AAAAUAAAGCAGUGAUGUUGCUUAUGAGAAGGAGCGCACGAAAGUGCAGGUAGGUCGCUCAGCCAAGUGGACGAAAACGUCCACA [#OpenEnded 10 #K4Early]
apparent KD of K4 kissing-loop reporter (input ligand: FMN 200 uM): 112 nM
apparent KD of K4 kissing-loop reporter (input ligand: arginine 13.2 mM): 122 nM
apparent KD of K4 kissing-loop reporter (input ligand: none): 123 nM
apparent KD of K4 kissing-loop reporter [1]: 144 nM
apparent KD of K4 kissing-loop reporter [2]: 90.4 nM

CCAGAAUGAUGAAGAUGAUAAAUUACUGAAGGAGCGCAUAUAGUUGCAGGUAGGUCGCGGUGAAUAAGUAUAGUGAUGUUAUACC [SSArgA.Ac]
apparent KD of K4 kissing-loop reporter (input ligand: FMN 200 uM): 265 nM
apparent KD of K4 kissing-loop reporter (input ligand: arginine 13.2 mM): 167 nM
apparent KD of K4 kissing-loop reporter (input ligand: none): 221 nM
apparent KD of K4 kissing-loop reporter [1]: 217 nM
apparent KD of K4 kissing-loop reporter [2]: 204 nM

GCAGUGAUGUUGCGGAUGUACAGUGGCGUGCGAGGACCGGUACGGCCGCCACUCGUACAGAACAAGCUAAUACAUCGAUAGGUGA [whbob_SS_Tryp_A_m1]
apparent KD of K4 kissing-loop reporter (input ligand: FMN 200 uM): 493 nM
apparent KD of K4 kissing-loop reporter (input ligand: arginine 13.2 mM): 294 nM
apparent KD of K4 kissing-loop reporter (input ligand: none): 556 nM
apparent KD of K4 kissing-loop reporter [1]: 516 nM
apparent KD of K4 kissing-loop reporter [2]: 355 nM

UAGGCGGGAGAAGGAUAUCUGUGAAACCUGCUGCCCAAUAAGUGAUGUUUAUAAAGGAAGCGUCAUAGAGAAGGUCUAACAAGUA [theeternabot_sameState_KL_FMN_B_1]
apparent KD of K4 kissing-loop reporter (input ligand: FMN 200 uM): 512 nM
apparent KD of K4 kissing-loop reporter (input ligand: arginine 13.2 mM): 582 nM
apparent KD of K4 kissing-loop reporter (input ligand: none): 714 nM
apparent KD of K4 kissing-loop reporter [1]: 642 nM
apparent KD of K4 kissing-loop reporter [2]: 814 nM

CAUAGGAAACUAUGUUUCUCUCUUACUGAAGGAGCGCGUGAAAACGCAGGUAGGUCGCAGAAUUUGAGAGUGAUGUUCUCAAUAA [Ex Arginine A K4 13]
apparent KD of K4 kissing-loop reporter (input ligand: FMN 200 uM): 114 nM
apparent KD of K4 kissing-loop reporter (input ligand: arginine 13.2 mM): 149 nM
apparent KD of K4 kissing-loop reporter (input ligand: none): 151 nM
apparent KD of K4 kissing-loop reporter [1]: 167 nM
apparent KD of K4 kissing-loop reporter [2]: 116 nM

GUAUGUGGAAACACGUACUUGUAUCCUAGGCAGGAUAUGCGGAAACGCAGAAGGGCCACCGGCGAGUUUAUCCAGUGAUGUUGGA [Ex FMN A 9]
apparent KD of K4 kissing-loop reporter (input ligand: FMN 200 uM): 245 nM
apparent KD of K4 kissing-loop reporter (input ligand: arginine 13.2 mM): 257 nM
apparent KD of K4 kissing-loop reporter (input ligand: none): 291 nM
apparent KD of K4 kissing-loop reporter [1]: 251 nM
apparent KD of K4 kissing-loop reporter [2]: 237 nM

ACGUCCGGGUUAAUCGUGGGCGUGGUGGAUACCAGUUCUUUAAUGAACCCUUGGCAGCCACAUGAGUGAUGUUCAUGUGCGAUGA [KL-XTheo-A10 #analogue]
apparent KD of K4 kissing-loop reporter (input ligand: FMN 200 uM): 100 nM
apparent KD of K4 kissing-loop reporter (input ligand: arginine 13.2 mM): 102 nM
apparent KD of K4 kissing-loop reporter (input ligand: none): 96.2 nM
apparent KD of K4 kissing-loop reporter [1]: 98.2 nM
apparent KD of K4 kissing-loop reporter [2]: 95.4 nM

AUUCGUUUAUGUGAUACCAGACUUUGCAGUGAUGUUGCUUUAAUUAAAGAUGUUUAGUUUGUCCCUUGGCAGCACUAUUUAUUUA [JR_SSTheophyB_Sub001]
apparent KD of K4 kissing-loop reporter (input ligand: FMN 200 uM): 54 nM
apparent KD of K4 kissing-loop reporter (input ligand: arginine 13.2 mM): 113 nM
apparent KD of K4 kissing-loop reporter (input ligand: none): 68.4 nM
apparent KD of K4 kissing-loop reporter [1]: 129 nM
apparent KD of K4 kissing-loop reporter [2]: 48.8 nM

AGUACAAUGGCGGCCGCCACUCAAUGGGCGACCGAAAGGUCGCAUCACUCAGUGAUGUUGAGUGAGAGGACCGGGCCUUUGUACA [Omei KL Tryp B SS B v8]
apparent KD of K4 kissing-loop reporter (input ligand: FMN 200 uM): 733 nM
apparent KD of K4 kissing-loop reporter (input ligand: arginine 13.2 mM): 497 nM
apparent KD of K4 kissing-loop reporter (input ligand: none): 611 nM
apparent KD of K4 kissing-loop reporter [1]: 595 nM
apparent KD of K4 kissing-loop reporter [2]: 270 nM

AGAGUGAUGUUUUUUUGAAGUGAGUAAUGUCGAGGACCGGUACGGCCGCCACUCGAGUGAUGUUAGUGAUGUUGAUGUAGUGAUG [?lmullin]
apparent KD of K4 kissing-loop reporter (input ligand: FMN 200 uM): 138 nM
apparent KD of K4 kissing-loop reporter (input ligand: arginine 13.2 mM): 61.3 nM
apparent KD of K4 kissing-loop reporter (input ligand: none): 72.4 nM
apparent KD of K4 kissing-loop reporter [1]: 137 nM
apparent KD of K4 kissing-loop reporter [2]: 127 nM

AUACAGCGACGCGCUAGUGAUGUUAGCGAAGGAGCGACUCAUGAGUCAGGUAGGUCGCGCUAACGUGGUUACGAGAGUAACCAGU [Arg A Ex t1a]
apparent KD of K4 kissing-loop reporter (input ligand: FMN 200 uM): 93.3 nM
apparent KD of K4 kissing-loop reporter (input ligand: arginine 13.2 mM): 86.8 nM
apparent KD of K4 kissing-loop reporter (input ligand: none): 93.6 nM
apparent KD of K4 kissing-loop reporter [1]: 80.1 nM
apparent KD of K4 kissing-loop reporter [2]: 89.4 nM

AUUUGUUUAUGUGAUACCAGACUUUGCAGUGAUGUUGCAUUUAUUUUAGAAGAAUAGUUUGUCCCUUGGCAGCACUAUGUAUUUA [JR_SSTheophyB_Sub006]
apparent KD of K4 kissing-loop reporter (input ligand: FMN 200 uM): 44.9 nM
apparent KD of K4 kissing-loop reporter (input ligand: arginine 13.2 mM): 98.2 nM
apparent KD of K4 kissing-loop reporter (input ligand: none): 49.3 nM
apparent KD of K4 kissing-loop reporter [1]: 80.7 nM
apparent KD of K4 kissing-loop reporter [2]: 41.5 nM
